From patent US20210317201A1
Changes are numbered by the printed parent chain. “And” between values parts separate entries of the source, which are not always exact repeats. Equal entries are not always repeated. Values belong to the binder of their own block, whether it stands above or below them.

What was measured:
[1] = biological target: Human IL-23 with linker (human) (UniProt P29460); experiment: SPR, ProteOn XPR36, global 1:1 fit
[2] = biological target: recombinant human IL-23 (human) (UniProt P29460); experiment: cell-based or functional assay
[3] = biological target: natural human IL-23 from activated THP-1 cells (human) (UniProt P29460); experiment: cell-based or functional assay
[4] = biological target: Human IL-23 no linker (human) (UniProt P29460); experiment: SPR, ProteOn XPR36, global 1:1 fit
[5] = biological target: cynomologous IL-23 (cynomolgus monkey); experiment: SPR, ProteOn XPR36, global 1:1 fit

Chain of recombinant human IL-23 (human) (chain, as listed by the source limits assumed, chain 1 of 2): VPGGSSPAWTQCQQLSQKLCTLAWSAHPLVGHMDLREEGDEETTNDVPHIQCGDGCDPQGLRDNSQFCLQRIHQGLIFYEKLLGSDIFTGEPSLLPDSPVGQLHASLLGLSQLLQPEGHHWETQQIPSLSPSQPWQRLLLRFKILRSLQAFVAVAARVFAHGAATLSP
Chain of recombinant human IL-23 (human) (P29460 23-328 limits assumed, chain 2 of 2): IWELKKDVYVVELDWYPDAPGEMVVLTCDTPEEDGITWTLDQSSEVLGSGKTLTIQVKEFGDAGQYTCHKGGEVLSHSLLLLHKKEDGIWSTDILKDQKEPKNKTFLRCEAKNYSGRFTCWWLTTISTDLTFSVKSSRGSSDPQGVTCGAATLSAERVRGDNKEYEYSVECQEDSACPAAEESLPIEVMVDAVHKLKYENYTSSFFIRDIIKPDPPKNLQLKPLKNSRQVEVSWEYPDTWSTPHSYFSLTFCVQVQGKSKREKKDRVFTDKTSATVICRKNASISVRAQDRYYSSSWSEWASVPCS
Chain of Human IL-23 no linker (human) (chain, as listed by the source limits assumed, chain 1 of 2): as the sequence (chain, as listed by the source limits assumed, chain 1 of 2) above
Chain of Human IL-23 no linker (human) (P29460 23-328 limits assumed, chain 2 of 2): as the sequence (P29460 23-328 limits assumed, chain 2 of 2) above
Chain of natural human IL-23 from activated THP-1 cells (human) (chain, as listed by the source limits assumed, chain 1 of 2): as the sequence (chain, as listed by the source limits assumed, chain 1 of 2) above
Chain of natural human IL-23 from activated THP-1 cells (human) (P29460 23-328 limits assumed, chain 2 of 2): as the sequence (P29460 23-328 limits assumed, chain 2 of 2) above

Kd [1]: < 0.001 nM
koff [1]: < 1e-06 s⁻¹
kon [1]: 356000 M⁻¹ s⁻¹
B1: Antibody B (antibody, human IgG1, kappa, L234A L235A, V domains shown)
VH: QVQLVQSGAEVKKPGSSVKVSCKASGFTFTDQTIHWVRQAPGQGLEWMGYIYPRDDSPKYNENFKGKVTLTADKSTSTAYMELSSLRSEDTAVYYCAIPDRSGYAWFIYWGQGTLVTVSS
VL: DIQMTQSPSSLSASVGDRVTITCKASRDVAIAVAWYQQKPGKVPKLLIYWASTRHTGVPSRFSGSGSRTDFTLTISSLQPEDVADYFCHQYSSYPFTFGSGTKLEIKR

Kd [1]: 0.107 nM
koff [1]: 4.07e-05 s⁻¹
kon [1]: 382000 M⁻¹ s⁻¹
B2: Antibody D (antibody, human IgG1, kappa, L234A L235A, V domains shown)
VH: B1 VH
VL: B1 VL with I48L, Y49F, S60D, R68G, V83L, F87Y, S100Q

IC50, IL-23 induced STAT3 phosphorylation in human DB cells (phospho-STAT3 ELISA) [2]: 0.163 nM and 0.438 nM
IC50, IL-23 stimulated IL-17 production from mouse splenocytes [3]: 0.093 nM and 0.044 nM
B3: antibody C1273 (disclosed in WO 2007/005955) (antibody, from another filing, V domains shown)
VH: DVNLVESGGGLVKPGGSLKLSCAASGFTFSSYTMSWVRQTPEKRLEWVATISSGGTYTYYPDSVKGRFTISRDNAKNTLYLQMSSLKSEDTAMFYCTRDNHAYDRGPFFDYWGQGATLTVSS
VL: DIVMSQSPSSLVVSVGEKVTMSCKSSQNLFYRSNQKNHLAWYQQKPGQSPTLLIYWTSTRESGVPDRFTGSGSGTDFTLTISRVKAEDLAVYYCQQYYSYPPTFGGGTKLEIK

IC50, IL-23 stimulated IL-17 production from mouse splenocytes [2]: 1.6 nM and 0.806 nM and 1.3 nM
Kd [4]: 0.214 nM
koff [4]: 0.000107 s⁻¹
kon [4]: 499000 M⁻¹ s⁻¹
Kd [5]: 0.157 nM
koff [5]: 0.000156 s⁻¹
kon [5]: 991000 M⁻¹ s⁻¹
B4: Antibody 6H12 (disclosed in WO 2007/027714) (antibody, from another filing, V domains shown)
VH: EVHLQQSGPELVKPGASVKMSCKASGYTFNRYLIHWVKQKPGQGLEWIGYINPNNDGTNYNEKFKGKATLTSDKSSSTAYMELSSLTSEDSAVYYCAANWDQAYWGQGTLVTVSA
VL: DIVMTQSPATLSVTPGDRVSLSCRASQSISDYLHWYQQKSHESPRLLIKYTSQSISGIPSRFSGSGSGSDFTLSINSVEPEDVGVYYCQNGHSFPFTFGSGTKLEIKR
